Series [1] is described as follows: HPLC-assay for in-use stability after reconstitution with 4.2% sodium hydrogen carbonate solution (Example 2, peptides SEQ ID NO 1-10). It is filed as physicochemical. The protocol: Resolubilization procedure: For clinical trials the above described formulation is dissolved in 700 μl sodium hydrogen carbonate (4.2%). Remove plastic cap from one vial. Unpack and remove sodium hydrogen carbonate (4.2%) from the refrigerator at least 30 min before resolubilization to bring them up to room temperature before injection. Prepare syringe and needle for reconstitution. Use aseptic technique to take 700 μL of diluent for reconstitution of the lyophilisate. To dissolve the lyophilisate, the vial and the diluent shall be shaken vigorously for 1 minute, check whether solution is clear, otherwise continue shaking for another minute until the solution is clear. 10 to 30 minutes after GM-CSF injection, use a new syringe to administer 500 μL reconstituted formulation i.d. at the same site. Administration has to occur within 1 h after reconstitution. Dissolved lyophilisate may be stored aseptically at room temperature for up to 1 hour following reconstitution.
However, a decrease of two specific peptides, i.e. IMA-CCN-001 and IMA-RGS-001 took place (see Table 6). As these peptides contain a cysteine residue, time-depending dimerization takes place.
Identity, purity and peptide content are determined by analytical RP-HPLC chromatography. Detection wavelength was 220 nm.

Series [2] in a line: Stability of renal cell cancer vaccine test formulations at +25° C. and +40° C. by analytical HPLC assay. It is filed as physicochemical. As to conditions: especially at +40° C. As for the experimental part: Various lyophilisates were tested with respect to stability of each individual peptide at +25° C. and […] using an analytical HPLC assay.
The peptides according to the SEQ ID NOs: 1 to 10 were lyophilised without any excipients and by addition of mannitol and Poloxamer 188 (LUTROL F68®) or TWEEN 80®.
The following test formulations were produced and stability were assessed at +25° C. and +40° C. by analytical HPLC assay:
Initial HPLC measurements have been performed for each formulation before storage in a climate chamber. For this purpose, the content of two vials was completely dissolved in 30% acetic acid and measured by RP-HPLC by repeat determination. To assure comparability between the individual measurements, β-Naphtyl-alanine was used as internal standard and lyophilized together with the peptides.
After 7, 14, 21, and 28 days, another two vials were removed from the climate chamber to assess stability.
Data assessment was performed by repeat determination of one vial. For one time point and temperature, two independent vials were used to obtain four data points in total. These values have been taken to calculate the standard deviation shown as error bars in the relevant diagram.

For the sequence “SVASTITGV (listed as Homo sapiens) [ADF-001, Adipophilin tumour-associated peptide]”, the “in-use stability, peptide by HPLC-assay” value turned out to be 99.6% in series [1] (+mannitol/lutrol, 1 h after reconstitution); 99.6% in series [1] (+mannitol/lutrol, 2 h after reconstitution); 100.7% in series [1] (+mannitol/lutrol, 3 h after reconstitution); 100.8% in series [1] (+mannitol/lutrol, 4 h after reconstitution); 99.9% in series [1] (+mannitol/lutrol, 5 h after reconstitution); 101.8% in series [1] (+mannitol/lutrol, 6 h after reconstitution). Further, the “in-use stability, peptide by HPLC-assay” value in series [1] (+mannitol/lutrol, Initial (starting value set to 100%)) is 100.0%; in series [1] (no excipients, 1 h after reconstitution), 102.4%; in series [1] (no excipients, 2 h after reconstitution) it was 102.4%; in series [1] (no excipients, 3 h after reconstitution) it was 100.0%; in series [1] (no excipients, Initial (starting value set to 100%)) it was 100.0%. For the same sequence, in series [2], the “peptide signal in formulations containing TWEEN 80” value is “increase of the signal”.

Source of the values: patent US9289478B2, “Formulations of tumour-associated peptides binding to human leukocyte antigen (HLA) class I or class II molecules for vaccine” (IMMATICS BIOTECHNOLOGIES GMBH, priority 2008, dated 2016).
